One data set concerns the target Arpp21 1-330 (UniProt Q9DCB4 1-330). Nature of the data set: ITC; 25 C, TCEP; 20 mM sodium phosphate pH 6.5, 300 mM NaCl, 2 mM DTT (TCEP instead of DTT for ITC); NMR 298 K, 10% D2O, 50 uM protein; ITC 25 C, 20 uM protein, 200 uM RNA in syringe. Conditions: protein: recombinant; tags: His-GB1 tag, TEV-cleaved.
The target of another data set is Arpp21 61-260 (UniProt Q9DCB4 61-260). Nature of the data set: ITC; 25 C, TCEP; panel label, Methods and text say 61-260, legend says 130-260; 20 mM sodium phosphate pH 6.5, 300 mM NaCl, 2 mM DTT (TCEP instead of DTT for ITC); NMR 298 K, 10% D2O, 50 uM protein; ITC 25 C, 20 uM protein, 200 uM RNA in syringe. Conditions: protein: recombinant; tags: His-GB1 tag, TEV-cleaved.
Arpp21 61-260, sequence (Q9DCB4 61-260): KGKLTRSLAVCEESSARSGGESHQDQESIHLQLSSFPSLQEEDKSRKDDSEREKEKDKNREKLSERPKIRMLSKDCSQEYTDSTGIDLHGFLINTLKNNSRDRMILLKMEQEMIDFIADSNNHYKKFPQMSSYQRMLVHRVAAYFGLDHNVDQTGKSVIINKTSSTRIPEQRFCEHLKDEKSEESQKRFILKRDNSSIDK

A word on the Kd: it is the free concentration of one partner at which half of the binding sites on the other are occupied at equilibrium, for simple one-to-one binding.

Arpp21 1-330, sequence (Q9DCB4 1-330): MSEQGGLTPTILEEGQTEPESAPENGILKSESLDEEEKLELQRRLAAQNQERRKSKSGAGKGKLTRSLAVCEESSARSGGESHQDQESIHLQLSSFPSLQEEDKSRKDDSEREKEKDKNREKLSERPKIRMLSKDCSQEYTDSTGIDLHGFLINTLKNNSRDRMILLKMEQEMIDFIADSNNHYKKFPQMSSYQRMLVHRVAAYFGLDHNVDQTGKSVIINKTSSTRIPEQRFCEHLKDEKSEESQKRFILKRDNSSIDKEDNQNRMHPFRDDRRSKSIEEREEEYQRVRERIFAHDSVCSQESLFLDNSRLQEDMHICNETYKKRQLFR

On to UUUUUUUUU (ssRNA) [U9 RNA], for which the Kd with Arpp21 1-330 was determined as 4.7 µM; with Arpp21 61-260, 4.8 µM.

Source of the values: paper PMC10928157, “The thymocyte-specific RNA-binding protein Arpp21 provides TCR repertoire diversity by binding to the 3’-UTR and promoting Rag1 mRNA expression”.
